Assay results reported in publication PMC11633186.

Biological target: VisAG5 (S. gordonii VisA region containing its 7 G5 domains, residues 138-698, C-terminal His-tag) (Streptococcus gordonii DL1)
Assay: SDS-PAGE and western blot against the His-tag (denaturing); purified VisAG5 in Laemmli buffer with 2.5% betamercaptoethanol; size of the band

stoichiometry N: 2
Substance: VisAG5 (S. gordonii VisA region containing its 7 G5 domains, residues 138-698, C-terminal His-tag) (domain or fragment)
